Assay results reported in patent US20190023748A1 (NAVIGEN, published 2019).
Bridge positions count the residues as written; N and C are the ends. Square brackets hold non-standard residues; d marks the D form. Primed or numbered codes have the meaning given here. PEG4′ = not defined here

Columns and labels:
Test in all cases: cell-based or functional assay
[1] = biological target: HIV-1 gp41 of isolate BK132/GS009 (clade B) (HIV-1 isolate BK132/GS009)
[2] = biological target: HIV-1 gp41 of isolate NP1695 (AE) (HIV-1 isolate NP1695)
[3] = biological target: HIV-1 gp41 of isolate 55815 (AG) (HIV-1 isolate 55815)
[4] = biological target: HIV-1 gp41 of isolate 301965 (clade D) (HIV-1 isolate 301965)
[5] = biological target: HIV-1 gp41 of isolate NI1149 (AE) (HIV-1 isolate NI1149)
[6] = biological target: HIV-1 gp41 of isolate NP1251 (AE) (HIV-1 isolate NP1251)
[7] = biological target: HIV-1 gp41 of isolate 20635-4 (clade C) (HIV-1 isolate 20635-4)
[8] = biological target: HIV-1 gp41 of isolate CAM0005 (AG) (HIV-1 isolate CAM0005)
[9] = biological target: HIV-1 gp41 of isolate KER2008 (clade A) (HIV-1 isolate KER2008)
[10] = biological target: HIV-1 gp41 of isolate CAM0015 (AG) (HIV-1 isolate CAM0015)
[11] = biological target: HIV-1 gp41 of isolate BX08 (clade B) (HIV-1 isolate BX08)
[12] = biological target: HIV-1 gp41 of isolate KNH1207 (clade A) (HIV-1 isolate KNH1207)
[13] = biological target: HIV-1 gp41 of isolate SE364/GS015 (clade C) (HIV-1 isolate SE364/GS015)
[14] = biological target: HIV-1 gp41 of isolate TZA68 (clade C) (HIV-1 isolate TZA68)
[15] = biological target: HIV-1 gp41 of isolate KSM4030 (clade A) (HIV-1 isolate KSM4030)
[16] = biological target: HIV-1 gp41 of isolate NP1538 (clade B) (HIV-1 isolate NP1538)
[17] = biological target: HIV-1 gp41 of isolate SM145/GS016 (clade C) (HIV-1 isolate SM145/GS016)
[18] = biological target: HIV-1 gp41 of isolate A08483M1 (clade D) (HIV-1 isolate A08483M1)
[19] = biological target: HIV-1 gp41 of isolate 92UG029 (clade A) (HIV-1 isolate 92UG029)
[20] = biological target: HIV-1 gp41 of isolate NI1046 (AE) (HIV-1 isolate NI1046)
[21] = biological target: HIV-1 gp41 of isolate DJ263/GS003 (AG) (HIV-1 isolate DJ263/GS003)
[22] = biological target: HIV-1 gp41 of isolate NKU3006 (clade D) (HIV-1 isolate NKU3006)
[23] = biological target: HIV-1 gp41 of isolate KER2018 (clade A) (HIV-1 isolate KER2018)
[24] = biological target: HIV-1 gp41 of isolate CAM0008 (AG) (HIV-1 isolate CAM0008)
[25] = biological target: HIV-1 gp41 of isolate PBL286 (clade C) (HIV-1 isolate PBL286)
[26] = biological target: HIV-1 gp41 of isolate TZA246 (clade C) (HIV-1 isolate TZA246)
[27] = biological target: HIV-1 gp41 of isolate A03349M1 (clade D) (HIV-1 isolate A03349M1)
[28] = biological target: HIV-1 gp41 of isolate CAM1970LE (AG) (HIV-1 isolate CAM1970LE)
[29] = biological target: HIV-1 gp41 of isolate CM235/GS020 (AE) (HIV-1 isolate CM235/GS020)
[30] = biological target: HIV-1 gp41 of isolate MN/H9 (clade B) (HIV-1 isolate MN/H9)
[31] = biological target: HIV-1 gp41 of strain JRFL (HIV-1 strain JRFL)

B1: CPT31 (cholesterol-PIE12-2-trimer with PEG32 fourth-arm spacer) (peptide)
peptide: Ac-[dH][dP][dC][dD][dY][dP][dE][dW][dQ][dW][dL][dC][dE][dL]G[PEG4′]K-NH2
modifications: disulfide 3-12 (inferred); not fully specified (some residues); numbers in words are those of the source; also: PIE12-2 trimer on scaffold, fourth arm PEG28 + PEG4 with cholesteryl carbamate
1 nM inhibition [1]: 99.7%
10 nM inhibition [1]: 99.8%
1 nM inhibition [2]: 95.7%
10 nM inhibition [2]: 97%
1 nM inhibition [3]: 98.8%
10 nM inhibition [3]: 99.5%
1 nM inhibition [4]: 96.1%
10 nM inhibition [4]: 97.7%
1 nM inhibition [5]: 92.9%
10 nM inhibition [5]: 97.4%
1 nM inhibition [6]: 97%
10 nM inhibition [6]: 98.4%
1 nM inhibition [7]: 99%
10 nM inhibition [7]: 99.6%
1 nM inhibition [8]: 98.4%
10 nM inhibition [8]: 99.8%
1 nM inhibition [9]: 84.1%
10 nM inhibition [9]: 85.3%
1 nM inhibition [10]: 96%
10 nM inhibition [10]: 97%
1 nM inhibition [11]: 94.2%
10 nM inhibition [11]: 99.5%
1 nM inhibition [12]: 92.1%
10 nM inhibition [12]: 98.2%
1 nM inhibition [13]: 91.6%
10 nM inhibition [13]: 97.7%
1 nM inhibition [14]: 97.7%
10 nM inhibition [14]: 99.7%
1 nM inhibition [15]: 93.6%
10 nM inhibition [15]: 95.6%
1 nM inhibition [16]: 95%
10 nM inhibition [16]: 99.4%
1 nM inhibition [17]: 30.6%
10 nM inhibition [17]: 75.7%
1 nM inhibition [18]: 69.2%
10 nM inhibition [18]: 72.3%
1 nM inhibition [19]: 95.2%
10 nM inhibition [19]: 98.2%
1 nM inhibition [20]: 99.1%
10 nM inhibition [20]: 99.7%
1 nM inhibition [21]: 96.7%
10 nM inhibition [21]: 99.2%
1 nM inhibition [22]: 97.2%
10 nM inhibition [22]: 99.8%
1 nM inhibition [23]: 94.8%
10 nM inhibition [23]: 97.5%
1 nM inhibition [24]: 96.8%
10 nM inhibition [24]: 99.7%
1 nM inhibition [25]: 95.8%
10 nM inhibition [25]: 99%
1 nM inhibition [26]: 98.3%
10 nM inhibition [26]: 98.4%
1 nM inhibition [27]: 93.6%
10 nM inhibition [27]: 99.5%
1 nM inhibition [28]: 97.3%
10 nM inhibition [28]: 98.5%
1 nM inhibition [29]: 81.8%
10 nM inhibition [29]: 98.7%
1 nM inhibition [30]: 99.3%
10 nM inhibition [30]: 100%
Antiviral potency, IC50, JRFL pseudovirion entry assay [31]: 0.015 nM
